Reference: the supplement of paper PMC9112550, “Optimization of the antimicrobial peptide Bac7 by deep mutational scanning” (BMC Biology, 2022)

System: Escherichia coli TOP10
Assay: shrunken log2 fold change of peptide-encoding DNA abundance (4.5 h post-induction vs induction); higher = less antimicrobial activity (less host growth inhibition)
Conditions: time post-induction: 4.5 h; library: site-saturation at positions 5, 18, 19, 20
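Also: peptides expressed intracellularly from a pBAD plasmid library in pooled LB shake-flask culture, induced with 0.3% L-arabinose, DNA abundance read by NGS, three biological replicates, DESeq2 with apeglm shrinkage.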

| Sequence | shrunken log2 fold change |
| --- | --- |
| RRIRQRPPRLPRPRPRPRNSPRP | -0.0108 |
| RRIRDRPPRLPRPRPRPGCQPRP | 0.341 |
| RRIRKRPPRLPRPRPRPRMDPRP | 0.236 |
| RRIRKRPPRLPRPRPRPSCRPRP | 0.0107 |
| RRIRNRPPRLPRPRPRPVQDPRP | -0.302 |
| RRIRFRPPRLPRPRPRPYQEPRP | -0.0819 |
| RRIRCRPPRLPRPRPRPGLNPRP | -0.0525 |
| RRIRIRPPRLPRPRPRPGRNPRP | 0.0581 |
| RRIRQRPPRLPRPRPRPAMHPRP | -0.125 |
| RRIRMRPPRLPRPRPRPFNSPRP | -0.326 |
| RRIRHRPPRLPRPRPRPFFFPRP | 0.123 |
| RRIRQRPPRLPRPRPRPNNYPRP | -0.53 |
| RRIRARPPRLPRPRPRPAWGPRP | 0.616 |
| RRIRGRPPRLPRPRPRPQSCPRP | 0.195 |
| RRIRERPPRLPRPRPRPAFFPRP | 0.00883 |
| RRIRDRPPRLPRPRPRPAIVPRP | 0.41 |
| RRIRIRPPRLPRPRPRPPIPPRP | 0.00551 |
| RRIRIRPPRLPRPRPRPYPHPRP | -1.02 |
| RRIRERPPRLPRPRPRPQQRPRP | 0.0285 |
| RRIRKRPPRLPRPRPRPDMPPRP | 0.122 |
| RRIRPRPPRLPRPRPRPWFDPRP | -0.278 |
| RRIRWRPPRLPRPRPRPLVTPRP | 0.687 |

| Sequence | shrunken log2 fold change |
| --- | --- |
| RRIRSRPPRLPRPRPRPSGNPRP | -0.571 |
| RRIRVRPPRLPRPRPRPPNCPRP | 0.194 |
| RRIRPRPPRLPRPRPRPIVFPRP | -0.293 |
| RRIRQRPPRLPRPRPRPCFLPRP | 0.115 |
| RRIRIRPPRLPRPRPRPGENPRP | -0.0334 |
| RRIRYRPPRLPRPRPRPNVNPRP | -1.2 |
| RRIRERPPRLPRPRPRPHTTPRP | -0.205 |
| RRIRWRPPRLPRPRPRPKWVPRP | -0.00843 |
| RRIRDRPPRLPRPRPRPPLYPRP | 0.0303 |
| RRIRVRPPRLPRPRPRPYLFPRP | 0.0655 |
| RRIRCRPPRLPRPRPRPDKKPRP | -0.132 |
| RRIRIRPPRLPRPRPRPFGSPRP | 0.00777 |
| RRIRDRPPRLPRPRPRPFIPPRP | -0.334 |
| RRIRIRPPRLPRPRPRPCDMPRP | -0.511 |
| RRIRYRPPRLPRPRPRPCIMPRP | -3.3 |
| RRIRVRPPRLPRPRPRPLAAPRP | 0.152 |
| RRIRGRPPRLPRPRPRPLRNPRP | 1.03 |
| RRIRHRPPRLPRPRPRPVVRPRP | 0.112 |
| RRIRRRPPRLPRPRPRPMCWPRP | 0.0358 |
| RRIRPRPPRLPRPRPRPQWNPRP | 0.36 |
| RRIRWRPPRLPRPRPRPCSGPRP | -0.0411 |
| RRIRMRPPRLPRPRPRPRDWPRP | 1.31 |

| Sequence | shrunken log2 fold change |
| --- | --- |
| RRIRFRPPRLPRPRPRPTGCPRP | 0.125 |
| RRIRARPPRLPRPRPRPSKDPRP | -0.111 |
| RRIRVRPPRLPRPRPRPICAPRP | -0.167 |
| RRIRLRPPRLPRPRPRPRQLPRP | 0.153 |
| RRIRGRPPRLPRPRPRPQICPRP | 0.156 |
| RRIRQRPPRLPRPRPRPFSWPRP | -0.0597 |
| RRIRKRPPRLPRPRPRPPHQPRP | 0.61 |
| RRIRDRPPRLPRPRPRPHQRPRP | 0.0159 |
| RRIRPRPPRLPRPRPRPGIWPRP | 0.157 |
| RRIRVRPPRLPRPRPRPLPKPRP | 0.361 |
| RRIRHRPPRLPRPRPRPFRLPRP | -0.322 |
| RRIRDRPPRLPRPRPRPSEEPRP | 0.277 |
| RRIRCRPPRLPRPRPRPMCSPRP | -0.218 |
| RRIRFRPPRLPRPRPRPHWLPRP | -0.066 |
| RRIRFRPPRLPRPRPRPCSPPRP | -0.674 |
| RRIRKRPPRLPRPRPRPTPIPRP | 0.639 |
| RRIRMRPPRLPRPRPRPIGYPRP | -0.0789 |
| RRIRIRPPRLPRPRPRPQVSPRP | -0.21 |
| RRIRPRPPRLPRPRPRPVIIPRP | -0.286 |
| RRIRVRPPRLPRPRPRPFSIPRP | -0.349 |
| RRIRMRPPRLPRPRPRPNRYPRP | 0.166 |
| RRIRRRPPRLPRPRPRPNCYPRP | -0.0134 |

| Sequence | shrunken log2 fold change |
| --- | --- |
| RRIRYRPPRLPRPRPRPWLVPRP | -0.096 |
| RRIRQRPPRLPRPRPRPKIEPRP | -0.32 |
| RRIRLRPPRLPRPRPRPRSFPRP | -0.107 |
| RRIRVRPPRLPRPRPRPANFPRP | 0.0908 |
| RRIRTRPPRLPRPRPRPSEFPRP | -0.369 |
| RRIRQRPPRLPRPRPRPFFWPRP | 0.314 |
| RRIRERPPRLPRPRPRPYPYPRP | -0.372 |
| RRIRIRPPRLPRPRPRPWYMPRP | -0.775 |
| RRIRARPPRLPRPRPRPACRPRP | 0.896 |
| RRIRYRPPRLPRPRPRPCNSPRP | -0.168 |
| RRIRSRPPRLPRPRPRPQQSPRP | -0.235 |
| RRIRSRPPRLPRPRPRPCNCPRP | 0.0508 |
| RRIRTRPPRLPRPRPRPHMAPRP | -0.123 |
| RRIRWRPPRLPRPRPRPQSSPRP | -0.276 |
| RRIRDRPPRLPRPRPRPTRFPRP | 0.0657 |
| RRIRLRPPRLPRPRPRPTRPPRP | 0.828 |
| RRIRTRPPRLPRPRPRPDWYPRP | -0.622 |
| RRIRRRPPRLPRPRPRPQSRPRP | 0.00841 |
| RRIRQRPPRLPRPRPRPACVPRP | 0.0809 |
| RRIRSRPPRLPRPRPRPSSAPRP | -0.0109 |
| RRIRPRPPRLPRPRPRPKCLPRP | -0.0739 |
| RRIRPRPPRLPRPRPRPKGLPRP | 0.062 |

| Sequence | shrunken log2 fold change |
| --- | --- |
| RRIRSRPPRLPRPRPRPHNQPRP | -0.271 |
| RRIRCRPPRLPRPRPRPSPEPRP | 0.3 |
| RRIRHRPPRLPRPRPRPTNNPRP | -0.467 |
| RRIRQRPPRLPRPRPRPHHMPRP | -0.256 |
| RRIRGRPPRLPRPRPRPYMGPRP | -0.00228 |
| RRIRTRPPRLPRPRPRPRMLPRP | 0.292 |
| RRIRWRPPRLPRPRPRPQKHPRP | -0.15 |
| RRIRPRPPRLPRPRPRPCTNPRP | -0.0219 |
| RRIRARPPRLPRPRPRPKFKPRP | -0.0259 |
| RRIRYRPPRLPRPRPRPWNMPRP | -0.186 |
| RRIRQRPPRLPRPRPRPECEPRP | 0.028 |
| RRIRPRPPRLPRPRPRPLCNPRP | -0.05 |
| RRIRLRPPRLPRPRPRPGEPPRP | -0.0262 |
| RRIRHRPPRLPRPRPRPVNKPRP | -0.579 |
| RRIRLRPPRLPRPRPRPVTQPRP | -0.323 |
| RRIRWRPPRLPRPRPRPQPSPRP | 0.287 |
| RRIRWRPPRLPRPRPRPWWPPRP | 0.19 |
| RRIRYRPPRLPRPRPRPSEVPRP | -0.177 |
| RRIRHRPPRLPRPRPRPNVIPRP | 0.0378 |
| RRIRPRPPRLPRPRPRPFLSPRP | -0.312 |
| RRIRIRPPRLPRPRPRPNVFPRP | -0.27 |
